Where “and” joins values, the source holds several entries; their conditions need not be identical. Identical values can stand only once.
T1: recombinant human IL-18Rα Fc chimera (R&D Systems, Cat. No. 816-LR) (human, UniProt Q13478 19-329)
T1 construct: Bought protein; also called hIL-18Rα (hFc-chimera R&D-Systems 816-LR); recombinant human IL-18Rα-Fc fusion protein; not shown: human Fc of the commercial chimera
T1 sequence: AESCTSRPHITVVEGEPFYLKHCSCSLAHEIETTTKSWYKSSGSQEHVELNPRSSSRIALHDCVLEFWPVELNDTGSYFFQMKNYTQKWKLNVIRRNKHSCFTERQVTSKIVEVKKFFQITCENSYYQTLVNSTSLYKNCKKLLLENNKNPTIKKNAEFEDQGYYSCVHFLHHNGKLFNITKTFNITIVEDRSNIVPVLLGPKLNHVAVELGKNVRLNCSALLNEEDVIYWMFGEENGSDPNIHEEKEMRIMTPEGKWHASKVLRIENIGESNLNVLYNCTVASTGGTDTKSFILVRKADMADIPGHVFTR

T2: rhST-2/hFc (R&D Systems, Cat. No. 523-ST) (human, UniProt Q01638-2 19-328, limits assumed)
T2 construct: Bought; not shown: human Fc (hFc) of the commercial protein
T2 sequence (looked up): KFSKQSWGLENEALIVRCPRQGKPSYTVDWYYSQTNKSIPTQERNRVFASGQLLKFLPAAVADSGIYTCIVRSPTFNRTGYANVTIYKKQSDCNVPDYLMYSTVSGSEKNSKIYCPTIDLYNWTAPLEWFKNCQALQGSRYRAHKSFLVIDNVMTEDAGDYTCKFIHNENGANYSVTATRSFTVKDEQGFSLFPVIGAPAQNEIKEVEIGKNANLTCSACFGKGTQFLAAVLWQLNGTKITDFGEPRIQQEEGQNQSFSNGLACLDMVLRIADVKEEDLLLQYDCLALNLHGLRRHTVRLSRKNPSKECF

B1: Mab 1G12 (antibody, V domains shown)
VH: QVQLQQPGAELVKPGASVRMSCKTSDYTFTSNWMHWVKQRPGQGLEWIGTIDPSDSYTYYNQKFKGRATLTVDTSSSTAYMQLSSLTSEDSAVYYCTTSGDYDADRYFDVWGAGTTVTVSS
VL: DIVLTQSPASLGVSLGQRATISCRASKSVSTSGDSYMHWYQQKPGQSPKLLIYLASNLESGVPARFSGSGSGTDFTLNIHPVEEEDAATYYCQQSRELPLSFGAGTKLELK
notes: Monoclonal antibody from immunized NMRI mice; detected with anti-mouse IgG1-PE / anti-mouse IgG; also called F20.1G12; monoclonal antibody 1G12
B2: Mab 2D11 (antibody, V domains shown)
VH: QVQLQQPGAELVKPGASVKMSCKASDYTFTSNWMHWVKQRPGQGLEWIGTIDPSDSYTYYNQKFKGKATLTVDTSSSTAYMHLSSLTSEDSAVYYCTTSGDYDADRYFDVWGAGTTVTVSS
VL: DIVLTQSPASLGVSLGQRATISCRASKSVSTSGDSYMHWYQQKPGQSPKLLIYLASNLESGVPARFSGSGSGTDFTLNIHPVEEEDAATYYCQQSRELPLSFGAGTKLELK
notes: Monoclonal antibody from immunized NMRI mice; detected with anti-mouse IgG1-PE / anti-mouse IgG; also called F20.2D11

Experiments:
[1] = molecular target: T1, recombinant human IL-18Rα Fc chimera …; assay: competition ELISA: inhibition of biotinylated IL-18 (+IL-18Rβ) binding to captured IL-18Rα Fc chimera
Protocol: The test was performed on 384 well microtiter plates at room temperature (RT). After each incubation step plates were washed 3 times with PBST (Phosphate Buffered Saline Tween®-20). At the beginning, plates were coated with 0.5 μg/ml goat anti-human IgG Fc fragment (Jackson 1 mm. Res., US, Cat. No. 109-006-170) for at least 2 hours (h). Thereafter the wells were blocked with PBS supplemented with 0.1% Tween®-20 and 2% BSA (Roche Diagnostics GmbH, DE) for 1 h. 0.2 μg/ml of recombinant human IL-18Rα Fc chimera (R&D Systems, UK, Cat. No. 816-LR) was captured for 1 h. Dilutions of purified antibodies in PBS with 0.5% BSA and 0.05% Tween®-20 were incubated with the receptor protein for 1 h. Biotinylated human IL-18 (MBL International, US, Cat. No. B003-5) and 0.2 μg/ml IL-18R13 (R&D Systems, UK, Cat. No. 118-AP) were added for an additional hour to build up the trimeric complex. IL-18 was biotinylated with Sulfo-NHS-LC-Biotin (Thermo Scientific Pierce, US, Cat. No. 21327) according to the manufacturer's protocol and purified using Zeba™ Desalt Spin Column (Thermo Scientific Pierce, US, Cat. No. 89889). Binding of the biotinylated IL-18 to the complex was detected with 1:2000 diluted streptavidin HRP (Roche Diagnostics GmbH, DE, Cat. No. 11089153001). […] Absorbance was measured at 370 nm. […]

[2] = molecular target: T2, rhST-2/hFc (R&D Systems, Cat. No. …); assay: ELISA, hFc fusion protein captured on anti-human Fc
Protocol: The test was performed on 384-well microtiter plates (MaxiSorp™, Thermo Scientific Nunc, DK, Cat. No. 464718) at RT. After each incubation step, plates were washed 3 times with PBST. At the beginning, plates were coated with 0.5 μg/ml goat anti-human IgG Fc fragment (Jackson 1 mm. Res., US, Cat. No. 109-006-170) for at least 2 hours (h). Thereafter the wells were blocked with PBS supplemented with 0.2% Tween®-20 and 2% BSA (Roche Diagnostics GmbH, DE) for 1 h. 0.2 μg/ml of recombinant human IL-18Rα-Fc fusion protein (R&D Systems, UK, Cat. No. 816-LR) was captured on plate for 1 h. For testing the binding of antibodies to other proteins of the IL-1 receptor family 0.2 μg/ml of the following recombinant human proteins conjugated to human Fc (hFc) were captured: [0194] rhIL-1RI/hFc (R&D Systems, UK, Cat. No. 269-1R) [0195] rhIL-1sRII/hFc (R&D Systems, UK, Cat. No. 263-2R) [0196] rhIL-1R3/hFc (R&D Systems, UK, Cat. No. 676-CP) [0197] rhIL-2Rα/hFc (R&D Systems, UK, Cat. No. 1020-RL) [0198] rhIL-7Rα/hFc (R&D Systems, UK, Cat. No. 306-IR) [0199] rhIL-15R/hFc (R&D Systems, UK, Cat. No. 147-IR) [0200] rhST-2/hFc (R&D Systems, UK, Cat. No. 523-ST)
After washing the plate, dilutions of purified antibodies in PBS with 0.05% BSA and 0.2% Tween®-20 were incubated with the receptor proteins for 1 h. Binding of antibodies was detected with 1:2000 diluted horseradish peroxidase (HRP)-conjugates of anti-mouse IgG (GE Healthcare, UK, Cat. No. NA9310V). After 1 h the plates were washed 6 times with PBST and developed with freshly prepared BM Blue® POD substrate solution (BM Blue®: 3,3″-5,5″-Tetramethylbenzidine, Roche Diagnostics GmbH, DE, Cat. No. 11484281001) for 30 minutes at RT. Absorbance was measured at 370 nm. The values were corrected for the control without antibody.

Row | Binder | IC50 [1] | absorbance at 370 nm (corrected for the control without antibody) [2]
1 | B1 | 0.022 µg/mL and 0.15 nM | 
2 | B2 | 0.029 µg/mL and 0.19 nM | 0.02
